Laboratory results taken from the DeepSol protein solubility set.

Experiment: soluble on expression in E. coli; label from the status in PepcDB or PDB records

Sequence | soluble on expression in E. coli
MPDSSMKRGATLCLALAIGPGSTLADDSLGHRDNISTGLNQRQKAEMKVPPGFVEGSTLNGFIRNYYFARDNHDTPSRRDQREWAQGLMLSFRSGYTDTPIGIGLDAHAFYGLRLDGGGGSGGAGVLPLDSAGRPADSFSAAGAALKLRGLDSLLKIGDQLLENPVIASGVSRMVPQSYRGVTLKNYHFRALELDAGFVEATRLRNQSGHSHLTSGYGNGTKGGIAADRESPHIAWLGASYSAPGGSQATLYSGRLEDIWNQHYLGLSQPWRLSSQLTLTPWLHYYKTRDQGRSQLGRIDNDLYNAGLTLAGGGQSLSLSLQKVDGDTPFDFIAQNDRTFLYESNAMQYADFNGPGERSWKIQYQASLAFLAAPDWQFGAAYGRGQADLTRVDPDSAGYGYLYNPNGKNAQHWERDLSLRYAFPAGPAKGLSVTLRWATHRPGEGYTAPGNTRGNSSSDEYRVVVDYPIRLL | not soluble
MPEASHPDHLIRAGRLQADDARLFTPEADGPADQTPPDEPGWLVTLATWKAAAATLRARRHPVGVQLPPDARLDELTGPDGELDRAALSFIAIEFPVYTDGRGYSLAQLLRRRYGWDGELRAVGDVMIDTIHYQARVGFDSFLVKPGHDPQRALAAFRTFSVHYQHTYPAPLAA | not soluble
MPEDLALESNPSDHPRASTIFLSKSQTDVREKRKSNHLNHCDLSNILPHKEQREKVPEEYFKHDPEHKFIYRFVRTLFSAAQLTAECAIVTLVYLERLLTYAEIDICPTNWKRIVLGAILLASKVWDDQAVWNVDYCQILKDITVEDMNEMERHFLELLQFNINVPASVYAKYYFDLRSLADDNNLNFLFAPLSKERAQNLEAISRLCEDKDLCRAAMRRSFSADNFIGIQRSKAILS | not soluble
MPEFIIVEGNNDLGEFFQIDGELFSDNELLENLKKWREWEVPVIIDDWCNRILNEDETEILYFPTHEDKMNYIRVEKDLEPLYHTSNKIYATISKSEWLELLN | not soluble
MPEHLNARVEACYRQAEHFFQRSFPRPTVSFRLRGQKAGVAHLDENLLRFNPQLYRENREHFLEQTVAHEVAHLIAHQLFGPRIRPHGEEWQLIMRGIYGLPPDRCHTYAVKRRATTRYLYRCHCPEHNDFPFSPQRHTLVAKGRRYYCRRCKATLVFTGEVLRELEHHHHHH | soluble
MPEHTKVSAEDQALLNKFARSYQTQTQLKADVKEAKTLIDNINEASDEILLLDDEDSASIPCRIGSCFVHFNGDSLNEHLEGKKTTAEKVLSEKTSELDAISADMEQIKKVLYAKFGDQINLDAEE | soluble
MPELAISTDKVAFLIEKAREFDVKEGESDADSGSNGADDDMVDVLEDTGDDPVVQEISGFIAAMTEEEQIDLVALMRLGRGDGSIEEWDDLRREAAEGRNGRTARYLLGEPLLGDYLADGLDQFGLSWSDERTTPVV | not soluble
MPEQSIEMTPDSSVYKALLESTKAIPWKINWQTMAFEYIGPQIEALLGWPQGSWKSVEDWATRMHPEDQEWVVNFCVKQSECGVDHEADYRALHRDGHYVWIRDVVHVVRDDSGEVEALIGFMFDISERKKTLEHHHHHH | not soluble
MPERIATVGWSNHEVPLALGVTPVGFEKVTWGDDDNNGILPWVEETLSKLGSDEPVLFDATDSIPFEEIANTAPDVILASYSGITQEDYDQLSQIAPVVAYPEIAWGTSLDEMIEMNSKAIGLEQEGKDLIADLDAEVASAIDANPELEHHHHHH | not soluble
MPFKMSSKAQTIKIFNLRSDTNEFIGAGDAYIPPHTGLPANCTDIAPPDIPSSHIAVFDAETQTWNLKEDHRGETVYDTTTGNQMYISEPGPLPENVTSVSPGGGYKKWDSKAKAWVNDEGAEVAARLREAEGTKSRLLQMASGKIAPLQDAVDLGIATDDEKAQLDEWKKYRVLVNRVDTSNPDWPEQPV | not soluble
MPGEFAKFPEQSAGSHQFRNPLDELTGSNTITNLTAHDFDYFTQSEKNSNLYTSENTSNSNRLNLNQNIPVGTLIDGFELINEASGSGFLDDQLVDVSDYSRDRTTKLDRNRNSPELIVALLQRKVQGIRFSSNYGREEEPCVIEIPPGTMVREMADDDWKMSELKEWFTKSRASSHLRDGLAMPMEELDCTPLICAMITRSDVMRINQDQAIHLLAVSVEKRIEVYQNFEWFNFILNLKIGDSVSVEVDETMRRVPAKVSWIGERPEASGIWYNVDFDGNTSQWPSSNQSYSSSHDRLNRQFDTNWNFEMSGSSSVAPSNSRLYYSPNQMHMPMKGGGVSALYDNRRLVQYSGDEEQYRSAPKPAPRERIIPVSRQQPEIEQRNSRSMKPSEPDYNTYSTHPPRPPPSSSMNYPSMSNTHSLQPSRSKSVQTIQRNQFVRQNPAERNERVESDQLNFRIGDQCIWNNNGAEERGIIKYIGFLKGHKTLYAGVEFKNTIGAGTGVFNREQLFLAKDGHAGFVELSSLESPSSSISSTSTSSSQHRRRLSSSRSQQMPAASGTSISVPVNGRHNVNGKQASIESLSDPPPPPYAPPSPPRASSAAAAHQQPPPLPPKPLARVEDFLIDSYDIGSHVVVRHLGAQRTGVVRWLGEEIDDEGDRIVRSAIVQLDEDVPTAWRRSHDASSYTGSPVVGGVLVPIQSLKHNHSGSSSNGASVVQTSTYPTSQTYNNISRRTEDFGSMDSGVEKQKCGIAKDMQQLVGRQKGIQGYCNSCYLDATLYAMFVQTTCFDFLLEKSIKGSETAQQFQKILAHEIVFPLRKVHYVRADHVMKLRKLLAELMPHVTGLTNEEKDPEEILGFIFSKVFHAEPFIKLIGQNHAKDSQYLVPIVVDDWLGGAATSQHLLERHMRSAQVTFAKAPPVLIMQLPRYGQQKVFDKILPLETIDITPFVAGAVPACSKCQACSEVYCPTCFLTRRVFYSEVIFCRKCFHHTHLLPEIEDHKSRDLYPPGKPQKKPHSHKMVLSAVLCIETSHYVAYVRTSSNQWVFFDSMADREGLSDGFNVPVVRECGNMSDWLSLQGWNRLKDADECGQIKVWELNKNISPNDRKLEIAMFGKQSSLDPLVGRLLSDSYICFYEDASPTSSSSSSSTIISSIKNMMN | not soluble
MPGGRRRGFDDQVALQTAMELFWRQGYEGTSITDLTKALGINPPSLYAAFGSKRDLFEKTLDRYMCERTLQLEEAMVRPTAHEAVLDFLTGRVEVFTAPGQPFGCMTVQAGLASGEPHHEIVDLLTAAREQMRQTVLDRFEKALADGDLPAGTDCTALARYVMAAVYGLSVEAASGAPREELTAAAILAAQVVPRAQM | soluble
MPGIAIIGAQWGDEGKGKVVDVLAREADYVIRYQGGANAGHTVVAEGKVFKLNLLPSGVIHPHAVNVLGDGMVIDPFRFQEEVEGLRKEGFDPKILVSERAHLVLPHHKHVESRHNFVGTTGRGIGPAYSDRARRVGIRAGDLLDEATLRERVRRLLAEKPNSTREAGWDTEEKALADLHRMREILSPYIADTGSLLREAWRKGKRLLFEGAQATLLDLNYGTYPYVTSSHPTVGGILVGTGLSHKAITKVYGVAKAYTTRVGEGPFPTELQGELAHHLREKGGEYGTTTGRPRRVGWLDLVALRYACEVNGFDGLVLTKLDVLSGLEKVKVAVEYLDGARPGEASPEAVRYLELPGWGDLSHVKRREDLPANLLRYLELVEEHTGVPVVLFSTSPRREDTFGAVSWV | soluble
MPGWRSICAVMGLTFTGCVFIQGSARAQDGNKATAVLELYTSQGCKSCPPADKNFAKYADDPNVLALSFHVNYWDYMGWRDTLATQDNTDRQNSYRNAFHAKMIYTPQAIINGAVEANGRNGAAINAKIAANKLDVPVSIQQLNDGRLSIDIGAGKKPRDPVHVVLFYFRDSATIPITEGENAGKAITYRNTVSDIDTIGMWDGKPLKIELPASELKRKDVTGCAVVLQETRSDNSLGPMHGAAMFKQKRPVSFLEHHHHHH | not soluble
MPHLFYGTAQNGEVIFDEREAHHMRVVRLKEGDVIEATDGNGFSYTCILKSLKKKTAAAKIVKVEEKEKEPTEKLSVVVPIGRWERTRFLIEKCVELGVDEIFFHKFERSQHEISLDKAKIVVREAAKQCKRYLFPKVSFLEKLEFSGNVITLDLDASQNLLDANLEGSITVVVGPEGGFSEKERELLRSSTTIVSLGKKILRFETAAILTVGYIALKKQKI | not soluble
MPIIYYDGNCVYCYNYAIWLIQHGLSTRYQFAKLQGDVAQNLLENYPEAQQYDSVILQEGDQLKYKSDAITTLITSLTNYKWLGILLRFVPNIIRDFGYQLFADNRNHMWKTHWHEPNDYEKSFFIDLEHHHHHH | not soluble
MPILQPKLMKQLMKFAIFGNTYQPKKSLHALRLFELLKKQGAEICMCREFYQFLTADLKMEVPVDALLEGNDFTADMVISIGGDGTFLKAARRVGRKQIPILGINTGRLGFLADVSPEEMEVTFEEIQAGRYSVEERSVLQLICNDRNLQESPYALNEIAVLKRDSSSMISIRTAINGAYLNTYQADGLVIATPTGSTAYSLSVGGPIIVPHSNTIAITPVAPHSLNVRPIVIRDDWEITLDVESRSHNFLVAIDGSSETCKETTQLTIRRADYSIKVVKRFNHIFFDTLRSKMMWGADGRRLEHHHHHH | soluble
MPINFHDANNKYTYAQRNAHISWGEMIKGITNIQNKQIIDIGCGGGIYTKELALMGAKSVVGLDFSKEILQAAKENCSGFSNISFIHGDAHSTPYPNDTFDIVISRAVIHHLQDIPTFLREASRILKKNGVLIVQDRTIEDCTIPGSPEHIRGYFFSIFPKLIEIESKRRPKTTTIQKELQKYFLHVFPTQTQWEVRKIHDSVEALLQDLSPRTGRSILYELTDYELSQLLQQVQTALQNVSPIIERDRWTIWSAMKL | not soluble
MPIVYYDGNCIYCYNYVIWLIQHDLPRNYQFATLKGEVGQQFFKQHPEAANKNSVILQKGDRIYFESQAIIKLITALPNRTKLLGVGLWLVPKPVRNFGYRMFANNRNRMWKTTWHQPNDYEKSFFLDDNAKVKLTD | not soluble
MPKIQNIVTVSSQEYRDAMSHFAGAVHIVTTNGIKGKRGVTISACCSLSDDPPTLLVCLMRHNLKNHLFIENGNFCVNSLAGKHRSLADIFSRRYNYTETECFDRAQWGTLQTGAPSLSDALASFDCRLICWHEHATHYILIGEVIAINRNQEKDALIYLNRGYHTLPL | not soluble
MPKQKASYEALLEEVVETLKHSPDGVNEIVESSAKYVDAANDLTKDELALISAYVKADLKEFSQSFEQSKSSPFYLMITNSIWQGLLDITDRTKVEWVELFADLEHQGLYQAGDMIGLGVLICDQCGHKTEFNHPTEIEPCSQCGGKAFSRQPLKP | not soluble
MPLALAQLQDIGDRITDRLRPWSRSAEFWVRAADIYTSYKVAPPDPVPLLHWLVCQLRAGFVKDEEEREAMWEQQHELGAQKMYSLCSELGGLFLKEAAQILGKPDLAPMAWVKRLVTLCDNAPATPIDVVRDVVEKQFGKSFDDIFECFDVEPVGSASIAQVHRARLKLSKTDVAVKVQHPGAEKLMMVDIRNMQAFALFLQKYDINFDLYSATKEMEKQICYEFDFVREAKAMERIREFLRVTNKKKPPVIVPRVIPEMVSREVLVMEFIEGTPIMNLGNEMAKRGIDPGGKIATMAKQKILTDLTLAYGQMILKDGFFHADPHPGNILICKNTEARLLFLFLFLAMVALLDYGQVKAMPEDLRLAYANLVIAMADDDFLRTKESFREIGIETWSIADNELEELFQLSLRMFDTRLPPGVTAMSPFAEDSSLNKVGVQNCLLNGVSILFFYLKSFPEELFSVLRTIQLLRGLTVGMGLRFSCAQQWKPIAEEALLKSGRLKDY | soluble
